The series deals with SHOC1 570-1111 (Homo sapiens, UniProt Q5VXU9 570-1111). Put plainly: EMSA; 2 mM Mg2+; 20 mM Tris-HCl pH 7.4, 1 mM DTT, 2 mM MgCl2, 100 mM NaCl, 10 uM 32P-DNA (so in the source), 20 ul, 10 min at 37 C; 8% PAGE in 1x TAE. Conditions: protein: recombinant, label: 5'-32P on #1. Background: In EMSA bound probe runs differently from free probe, usually more slowly.
Sequence of SHOC1 570-1111 (Q5VXU9 570-1111): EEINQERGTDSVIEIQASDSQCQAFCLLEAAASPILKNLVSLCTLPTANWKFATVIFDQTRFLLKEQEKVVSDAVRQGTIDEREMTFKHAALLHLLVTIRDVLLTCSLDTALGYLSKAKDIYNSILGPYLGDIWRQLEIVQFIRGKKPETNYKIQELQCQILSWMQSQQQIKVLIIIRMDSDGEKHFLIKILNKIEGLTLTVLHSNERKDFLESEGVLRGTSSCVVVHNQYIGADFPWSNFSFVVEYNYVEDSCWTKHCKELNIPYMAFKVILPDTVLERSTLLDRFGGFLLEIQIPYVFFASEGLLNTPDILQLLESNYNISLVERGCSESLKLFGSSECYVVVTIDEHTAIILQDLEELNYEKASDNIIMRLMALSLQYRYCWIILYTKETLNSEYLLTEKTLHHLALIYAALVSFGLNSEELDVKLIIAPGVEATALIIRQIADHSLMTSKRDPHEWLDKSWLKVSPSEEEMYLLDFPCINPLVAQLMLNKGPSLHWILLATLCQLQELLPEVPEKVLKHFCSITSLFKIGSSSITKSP

B1: single-stranded DNA (#1) (ssDNA)
DNA: ACGCTGCCGAATTCTACCAGTGCCTTGCTAGGACATCTTTGCCCACCTGCAGGTTCACCC
As to B1, the binding result (single strand, 60 nt) is recorded as “binds”.

B2: D-loop (#1, #6, #7) (structured_DNA)
DNA 1: B1 DNA
DNA 2: GGGTGAACCTGCAGGTGGGCAGGAAGGCAAAATGCCGCAACTGGTAGAATTCGGCAGCGT
DNA 3: TTGCGGCATTTTGCCTTCCTCGGCCAGTGAATTCGAGCTC
On to B2, for which, under “D-loop 1:2 2:3, invading strand 3 pairs by its 5' 20 nt, 3' 20 nt tail”, the binding result is given as “binds”.
